Reference: US20180105597A1
pEC50: −log10 of the molar value.

Assays:
human C1q (human) [1] = molecular target: human C1q (human) (UniProt P02745); assay: cell-based or functional assay
human C1q (human) [2] = molecular target: human C1q (human) (UniProt P02745); assay: solid phase C1q binding ELISA, antibody coated in a titration, C1q added
FcγR3a (V) (human) = FcγR3a (V) (human) (UniProt P08637); assay: solid phase binding assay (Meso Scale), receptor coated, antibody titrated
FcγR2a(H) (human) = FcγR2a(H) (human) (UniProt P12318); assay: as above
FcγR1 (human) = FcγR1 (human) (UniProt P12314); assay: as above
Sequence of FcγR1 (human) (P12314 16-288): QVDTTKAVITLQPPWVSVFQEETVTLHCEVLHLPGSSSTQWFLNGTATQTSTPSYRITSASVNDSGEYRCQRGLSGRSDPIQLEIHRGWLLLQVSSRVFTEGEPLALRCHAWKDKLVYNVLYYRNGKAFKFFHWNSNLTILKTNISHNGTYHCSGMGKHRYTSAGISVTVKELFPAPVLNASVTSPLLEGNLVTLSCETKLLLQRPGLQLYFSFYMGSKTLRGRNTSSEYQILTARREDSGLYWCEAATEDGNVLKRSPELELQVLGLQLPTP

Sequence of human C1q (human) (P02745 23-245 limits assumed, chain 1 of 3): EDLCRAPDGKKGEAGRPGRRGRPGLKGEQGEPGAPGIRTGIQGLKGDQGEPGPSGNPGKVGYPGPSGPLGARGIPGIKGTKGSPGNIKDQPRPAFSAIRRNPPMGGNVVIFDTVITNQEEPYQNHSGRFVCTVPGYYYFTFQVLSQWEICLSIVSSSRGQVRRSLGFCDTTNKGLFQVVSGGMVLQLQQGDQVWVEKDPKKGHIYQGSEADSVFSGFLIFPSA
Sequence of human C1q (human) (P02746 28-253 limits assumed, chain 2 of 3, further chain): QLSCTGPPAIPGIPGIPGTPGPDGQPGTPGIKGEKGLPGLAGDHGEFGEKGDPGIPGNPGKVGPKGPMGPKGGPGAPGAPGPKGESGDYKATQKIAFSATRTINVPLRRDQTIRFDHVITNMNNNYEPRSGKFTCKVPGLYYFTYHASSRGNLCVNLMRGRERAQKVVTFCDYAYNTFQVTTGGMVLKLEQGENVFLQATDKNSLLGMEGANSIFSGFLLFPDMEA
Sequence of human C1q (human) (P02747 29-245 limits assumed, chain 3 of 3, further chain): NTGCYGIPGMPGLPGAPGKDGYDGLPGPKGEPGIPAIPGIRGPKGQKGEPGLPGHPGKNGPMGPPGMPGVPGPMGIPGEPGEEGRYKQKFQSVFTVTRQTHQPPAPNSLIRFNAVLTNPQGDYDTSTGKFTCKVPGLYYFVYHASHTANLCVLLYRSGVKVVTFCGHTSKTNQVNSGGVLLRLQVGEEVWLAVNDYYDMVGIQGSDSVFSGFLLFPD
Sequence of FcγR2a(H) (human) (P12318 36-218): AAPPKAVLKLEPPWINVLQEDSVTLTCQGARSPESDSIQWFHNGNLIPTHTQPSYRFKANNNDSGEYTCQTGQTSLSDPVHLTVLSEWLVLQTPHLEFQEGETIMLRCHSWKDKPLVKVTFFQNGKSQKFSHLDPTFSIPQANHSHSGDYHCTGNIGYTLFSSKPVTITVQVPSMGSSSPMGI
Sequence of FcγR3a (V) (human) (P08637 17-208 F176V): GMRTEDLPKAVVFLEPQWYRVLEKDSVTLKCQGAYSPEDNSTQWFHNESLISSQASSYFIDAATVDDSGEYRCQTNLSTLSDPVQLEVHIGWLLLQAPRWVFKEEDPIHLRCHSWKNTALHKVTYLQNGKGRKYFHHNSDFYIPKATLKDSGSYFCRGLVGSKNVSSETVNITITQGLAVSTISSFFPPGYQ

Substance: LY3022859 (antibody)
- CDC activity EC50 (nM), BxPC3 target cells, human complement (human C1q (human) [1]): > 200 nM
- CDC activity EC50 (nM), HEK293 target cells, human complement (human C1q (human) [1]): > 200 nM
- CDC activity EC50 (nM), MDA-MB-231 target cells, human complement (human C1q (human) [1]): > 200 nM
- CDC activity EC50 (nM), TGFRβII-HEK target cells, human complement (human C1q (human) [1]): > 200 nM
- pEC50 (human C1q (human) [2]): 7.72
- pEC50 (FcγR3a (V) (human)): 8.24
- pEC50 (FcγR2a(H) (human)): 7.32
- pEC50 (FcγR1 (human)): 9.24
